Experimental data published in paper PMC5085138, “Novel CD7-specific nanobody-based immunotoxins potently enhanced apoptosis of CD7-positive malignant cells” (Oncotarget, 2016).

B1: VHH6, CD7-specific nanobody (VHH)
VHH: DVQLQESGGGLVQAGGSLRLSCAVSGYPYSSYCMGWFRQAPGKEREGVAAIDSDGRTRYADSVKGRFTISQDNAKNTLYLQMNRMKPEDTAMYYCAARFGPMGCVDLSTLSFGHWGQGTQVTVSI
notes: Selected from a phage library of animals immunized with Jurkat cells (llama in the results, Camelus dromedarius in the methods); Monomer by SEC; also called parental nanobody; source: E. coli BL21 (DE3), pET28a, purified (Ni-NTA)
B2: VHH10, CD7-specific nanobody (VHH)
VHH: DVQLQESGGGSVQAGGSLRLSCAASGYTHSSYCMAWFRQAPGREREGVASIDSDGTTSYADSVKGRFTISQDNAKNTLYLQMNSLKPEDTAMYYCAARFGPMGCVDLSTLSFGHWGQGTQVTVSI
notes: source: E. coli BL21 (DE3), pET28a, purified (Ni-NTA)
B3: CD7 on CD7-positive T-cell lines Jurkat and CEM (receptor)
chain: AQEVQQSPHCTTVPVGASVNITCSTSGGLRGIYLRQLGPQPQDIIYYEDGVVPTTDRRFRGRIDFSGSQDNLTITMHRLQLSDTGTYTCQAITEVNVYGSGTLVLVTEEQSQGWHRCSDAPPRASALPAPPTGSALPDPQTASALPDPPAASALPAALAVISFLLGLGLGVACVLARTQIKKLCSWRDKNSAACVVYEDMSHSRCNTLSSPNQYQ
notes: CD7, cell surface glycoprotein of the immunoglobulin superfamily, endogenous on the human T-ALL cell lines Jurkat and CEM; Also used as the target in the functional rows on patient-derived primary AML and T-ALL cells; source: endogenous, on Jurkat and CEM cells

Key:
Details in all cases: one partner purified
[1] = target: B3; assay: flow cytometry on cells; nanobody or immunotoxin at different concentrations incubated with Jurkat cells on ice; detected with APC anti-HA or Alexa Fluor 488 anti-His antibody; saturation curves, Scatchard plots, nonlinear regression (Prism)
[2] = target: T1, PG002, bivalent CD7 nanobody-based immunotoxin (dVHH6-PE38-KDEL) (Pseudomonas (species )); assay: flow cytometry on cells
T1 construct: also called pET28a-dVHH6-PE38-KDEL; not shown: His6, N-terminal, kept

[3] = target: T2, PG001, monovalent CD7 nanobody-based immunotoxin (VHH6-PE38-KDEL) (Pseudomonas (species )); assay: flow cytometry on cells
T2 construct: also called pET28a-VHH6-PE38-KDEL; not shown: His6, N-terminal, kept

| Binder | Kd [1] [nM] | Kd [2] [nM] | Kd [3] [nM] |
| --- | --- | --- | --- |
| B1 | 15.4 |  |  |
| B2 | 29.6 |  |  |
| B3 |  | 3.61 | 16.7 |
